Here are results for 25 molecules from patent US20060149033A1, “IGF antagonist peptides” (GENENTECH, INC., priority 2001, published 2006).

Assay [1] addresses T1, IGF-1 (Homo sapiens, UniProt P05019).
T1 construct: made in house
Put plainly: Affinity measurement by monovalent phage ELISA (phage competition IC50). The class given is binding. The note with it: positive second generation clones. The method, then:
E. coli XL1-Blue harboring phagemids were grown overnight at 37° C. in 2YT, 50 μg/mL carbenicillin, 10 μg/mL tetracycline and M13-VCS helper phage (10^10 phage/mL). Phage were harvested from the culture supernatant by precipitation twice with PEG/NaCl and resuspended in phosphate-buffered saline, 0.2% BSA, 0.1% TWEEN®-20 detergent (BSA blocking buffer). Phage concentrations were determined spectrophotometrically (λ268=1.2×10^8 M^−1 cm^−1).
MAXISORP™ immunoplates (96-well) were coated with capture target protein for 2 hours at room temperature (100 μL at 5 μg/mL in 50 mM carbonate buffer, pH 9.6). The plates were then blocked for 1 h with 0.2% BSA in phosphate-buffered saline (PBS) and washed eight times with PBS, 0.05% TWEEN®-20 detergent. Phage particles were serially diluted into BSA blocking buffer and 100 μL were transferred to coated wells. After 1 h, plates were washed eight times with PBS, 0.05% TWEEN®-20 detergent, incubated with 100 μL of 1:3000 horse radish peroxidase/anti-M13 antibody conjugate in BSA blocking buffer for 30 min, and then washed eight times with PBS, 0.05% TWEEN®-20 detergent and two times with PBS. Plates were developed using a tetramethylbenzidine substrate (TMB, Kirkegaard and Perry, Gaithersburg, Md.), stopped with 1.0 M H3PO4, and read spectrophotometrically at […].
Affinity Measurement by Monovalent Phage ELISA
Phage ELISAs were carried out as described above, using plates coated with IGF-1. Peptide-displaying phage were serially diluted and binding was measured to determine a phage concentration giving <50% of the ELISA signal at saturation.
A fixed, subsaturating concentration of peptide-phage was mixed with serial dilutions of IGF-1 and incubated for 1.0 hr and then transferred to assay plates coated with IGF-1. After 30-min incubation, the plates were washed and developed as described above. The binding affinities of the peptides for IGF-1 were determined as IC50 values where the IC50 value is defined as the concentration of IGF-1 that blocked 50% of the peptide-phage binding to the immobilized IGF-1.
For orientation: In an ELISA, binding on a coated surface is turned into a signal by an enzyme label.

The test system of assay [2] is human type 1 IGF-1 receptor. Put plainly: Cell-based IGF-1 KIRA assay. The note with it: MCF-7 cells; peptides preincubated 30 min with 2 nm IGF-1; 15-minute stimulation. As to the method: Cell-Based IGF-1 KIRA Assay
A KIRA for measuring the activation of the human type 1 IGF-1 receptor was performed using human MCF-7 cells (as described above). Cells were grown overnight in 96-well plates with medium (50:50 F12/DMEM, Gibco). Supernatants were decanted, and stimulation media (50:50 F12/DMEM with 25 mM HEPES and 2.0% BSA) containing either controls (2 nM IGF-1 preincubated with IGF Bp1 or Bp3) or experimental samples (Peptides preincubated for 30 min. with 2 nm IGF-1) were added. After 15-minute stimulation the cells were lysed, and added to the polyclonal anti-IGF-R (3B7 Santa Cruz Biotech) coated overnight on immunosorbant plates. The detection ELISA was performed as above.

Assay [3] deals with human insulin receptor (hIR). The assay can be described thus: Cell-based insulin KIRA assay (kinase receptor activation). Conditions: Chinese hamster ovary cells transfected with hIR; peptides incubated with 25 nm IGF-1 for 1 hr; 15 min stimulation. As to the method: Cell-Based Insulin KIRA Assay of IGF-1 Binding Peptide Activity
A kinase receptor activation assay (KIRA) (Sadick et al., J. Pharm. Biomed. Anal., 19, 883-891 (1999)) for measuring phosphorylation of human insulin receptor (hIR) was developed using Chinese hamster ovary cells transfected with the hIR. (TRY-1R 5.3) Cells were grown overnight in 96-well plates with medium (PS/20) at 37° C. Supernatants were decanted and stimulation media (PS/20 and 0.5% BSA) containing either peptide samples (peptides incubated with 25 nm IGF-1 for 1 hr), experimental controls (IGF Bp1 incubated with IGF-1 for 1 hr), and 25 nm rhIGF-1 standards were added. After fifteen minute stimulation at 37° C., stimulation solutions were removed and cells were lysed with a buffer containing 50 mM HEPES, 150 mM NaCl, 0.5% Triton-X-100™ octylphenyl ethylene oxide condensate, 1 mM AEBSF, aprotinin and 0.05 mM leupeptin, and 2 mM sodium orthovanadate. Lysates were frozen at −70° C. for ELISA. Immunosorbant plates were coated with 2 μg/ml insulin receptor Ab-2 (clone 83-7) in PBS at pH 7.0 overnight at 4° C. The plate was blocked and washed as above. Cell lysates containing transfected hIR were incubated on the capture ELISA plates for 2 hrs. After removing unbound receptor by washing, biotinylated anti-phosphotyrosine 4G10 (Upstate Biologicals Inc.) was added to detect activated receptor. After 2 hrs, the plates were developed with streptavidin conjugated to HRP and TMB substrate as above.

pIC50: −log10 of the molar value. Bridge positions count the residues as written; N and C are the ends. Peptide text beside a SMILES is read from it.

T1 sequence (P05019 49-118 limits assumed): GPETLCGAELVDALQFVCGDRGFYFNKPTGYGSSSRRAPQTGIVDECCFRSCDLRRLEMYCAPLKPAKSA

In assay [1], “F1-C (RNCFESVAALRRCMY; Sequence is synthesized) [Peptide F1-C]” gave a negative-log IC50 (pIC50) of 6.97. “F2-G (ASCVADAGGGGYCWD; Sequence is synthesized) [Peptide F2-G]” gave a negative-log IC50 (pIC50) in assay [1] of 6.01. In the case of “F2-L (ARCARDAGGFYYCWA; Sequence is synthesized) [Peptide F2-L]”, the negative-log IC50 (pIC50) in assay [1] is 5.36. On the same count and under the same terms, the figure for “F1-E (SDCFGSVEALKMCMY; Sequence is synthesized) [Peptide F1-E]” is 6.15; for “F2-K (YRCATDLAGFSYCWA; Sequence is synthesized) [Peptide F2-K]” it is 5.84; for “F2-I (VTCAADALGFLYCWE; Sequence is synthesized) [Peptide F2-I]” it is 5.99. Same read-out and setting: the result for “F2-D (VRCAWDLGGRAYCWA; Sequence is synthesized) [Peptide F2-D]” reads 3.60; that for “F2-E (LGCASDLAGFWYCWA; Sequence is synthesized) [Peptide F2-E]”, 6.26. In assay [1], “F1-H (MDCLASVEALKWCMY; Sequence is synthesized) [Peptide F1-H]” gave a negative-log IC50 (pIC50) of 6.83. Consider “F1-B (FGCYESVAALRTCMY; Sequence is synthesized) [Peptide F1-B]”, for which the negative logarithm of the IC50 (pIC50) in assay [1] was 6.52. On the same count and under the same terms, the figure for “F1-G (SDCFESVEALRACMY; Sequence is synthesized) [Peptide F1-G]” is 6.01. Same read-out and setting: the figure for “F1-F (FECLTSVEALRGCMY; Sequence is synthesized) [Peptide F1-F]” is 6.54; for “F2-M (WRCAQDAGGWTYCWA; Sequence is synthesized) [Peptide F2-M]” it is 5.98; for “F1-A (HPCLESVGALKACMY; Sequence is synthesized) [Peptide F1-A]” it is 6.40. As for “F2-B (VRCAYDAGGSRYCWE; Sequence is synthesized) [Peptide F2-B]”, the negative-log IC50 (pIC50) in assay [1] was 4.61. Turning to `CSCC[C@H](NC(=O)[C@@H]1CSSC[C@H](NC(=O)[C@H](CCC(=O)O)NC(=O)[C@@H](N)CC(=O)O)C(=O)N[C@@H](CC(C)C)C(=O)N[C@@H](CCSC)C(=O)N[C@@H](CO)C(=O)N[C@@H](C(C)C)C(=O)N[C@@H](CCC(=O)O)C(=O)N[C@@H](C)C(=O)N[C@@H](CC(C)C)C(=O)N[C@@H](CCCCN)C(=O)N[C@@H](CC(N)=O)C(=O)N1)C(=O)NCC(=O)NCC(=O)O` [Peptide F1-P, DECLMSVEALKNCMGG] (H-DECLMSVEALKNCMGG-OH; disulfide 3-13), the negative-log IC50 (pIC50) was 3.40 in assay [2] and 3.74 in assay [3]. “F2-A (GGCASDLAGFRYCWE; Sequence is synthesized) [Peptide F2-A]”: the pIC50 in assay [1] was 5.88. Regarding `CC(C)C[C@@H]1NC(=O)[C@H](CC(=O)O)NC(=O)[C@H](CO)NC(=O)[C@H](C)NC(=O)[C@@H](NC(=O)CNC(=O)[C@@H](N)CC(C)C)CSSC[C@@H](C(=O)N[C@@H](Cc2c[nH]c3ccccc23)C(=O)N[C@@H](C)C(=O)NCC(=O)O)NC(=O)[C@H](Cc2ccc(O)cc2)NC(=O)[C@H](Cc2c[nH]c3ccccc23)NC(=O)[C@H](Cc2ccccc2)NC(=O)CNC(=O)[C@H](C)NC1=O` [Peptide F2-1, LGCASDLAGFWYCWAG] (H-LGCASDLAGFWYCWAG-OH; disulfide 3-13 (inferred); N-terminus and C-terminus assumed), the pIC50 in assay [3] was 4.39. As to “F2-C (VKCARDLSGFVYCWA; Sequence is synthesized) [Peptide F2-C]”, the pIC50 in assay [1] is 2.00. The same measure, in the same setting: the figure for “F2-J (LRCAEDLGGYFYCWA; Sequence is synthesized) [Peptide F2-J]” is 5.67; for “F2-F (FRCAWELGWLYVLGL; Sequence is synthesized) [Peptide F2-F]” it is 3.68.

For `CC(C)[C@@H]1NC(=O)[C@@H](NC(=O)[C@H](CCCNC(=N)N)NC(=O)[C@H](C)N)CSSC[C@@H](C(=O)N[C@@H](Cc2c[nH]c3ccccc23)C(=O)N[C@@H](C)C(=O)NCC(=O)O)NC(=O)[C@H](Cc2ccc(O)cc2)NC(=O)[C@H](Cc2c[nH]c3ccccc23)NC(=O)[C@H]([C@@H](C)O)NC(=O)CNC(=O)CNC(=O)[C@H](C)NC(=O)[C@H](CC(=O)O)NC(=O)[C@H](C(C)C)NC1=O` [Peptide F2-P, ARCVVDAGGTWYCWAG] (H-ARCVVDAGGTWYCWAG-OH; disulfide 3-13), in assay [3], the pIC50 is 3.52. In assay [1], “F2-N (WRCVTDAGGRPYCWA; Sequence is synthesized) [Peptide F2-N]” gave a negative-log IC50 (pIC50) of 5.93. The same measure, in the same setting: the result for “F2-H (WRCVDDLGGFQYCWA; Sequence is synthesized) [Peptide F2-H]” reads 6.50. In the case of `CC(C)C[C@@H]1NC(=O)[C@H](CC(=O)O)NC(=O)[C@H](CC(=O)O)NC(=O)[C@H](C(C)C)NC(=O)[C@@H](NC(=O)[C@H](CCCNC(=N)N)NC(=O)[C@@H](N)Cc2c[nH]c3ccccc23)CSSC[C@@H](C(=O)N[C@@H](Cc2c[nH]c3ccccc23)C(=O)N[C@@H](C)C(=O)NCC(=O)O)NC(=O)[C@H](Cc2ccc(O)cc2)NC(=O)[C@H](CCC(N)=O)NC(=O)[C@H](Cc2ccccc2)NC(=O)CNC(=O)CNC1=O` [Peptide F2-2, WRCVDDLGGFQYCWAG] (H-WRCVDDLGGFQYCWAG-OH; disulfide 3-13 (inferred); N-terminus and C-terminus assumed), the negative logarithm of the IC50 (pIC50) is 3.89 in assay [2] and 4.03 in assay [3].

What is called pIC50 is the negative decadic logarithm of the IC50, by convention in mol/L. Higher therefore signals a low IC50.
